Reference: patent US9599605 (BOSTON MEDICAL CENTER, dated 2017)

Tests used:
[1] = target: Endogenous mouse STIM1 (mouse) (UniProt P70302); assay: cell-based or functional assay
[2] = target: T1, Overexpressed ^YFPSTIM1 from extracts of FreeStyle 293-F cells (UniProt Q13586 23-685); assay: pull-down on SNAP-immobilized bait, Western blot
T1 construct: not shown: YFP of the YFPSTIM1 construct (gift from Dr. T. Meyer)
Procedure: (§1) A: with full-sized original images of immunoblots (B and C).
(§2) The cells were harvested 48 h after transfection, lysed on ice in lysis buffer (25 mM Tris-HCl, pH 7.5, 150 mM NaCl, 0.5% NP-40, 5% glycerol, 2 mM DTT, 1×HALT Protease inhibitors cocktail (Pierce), 1 mM PMSF) and the extracts were cleared by centrifugation for 15 min at 16,000 g at 4° C. Each SNAP-tagged protein was covalently immobilized by incubating ~800 µL of the extract with 25 µL bed volume of SNAP Capture Resin (New England Biolabs), equilibrated with Resin Wash Buffer (RWB; 25 mM Tris-HCl, pH 7.5, 150 mM NaCl, 5% glycerol), for 16 h at 6° C. Control sample of each extract was incubated under the same conditions in the absence of the resin. Following immobilization, the resin was collected in the mini spin column (Pierce), washed 5 times on ice with 600 µL of RWB, combined with the prey protein extract, and incubated with orbital mixing at ~600-800 rpm for 6 h at 4° C.

[3] = target: T2, Endogenous STIM1 from extracts of Jurkat T lymphocytes (human, UniProt Q13586 23-685); assay: pull-down on SNAP-immobilized bait, Western blot
T2 construct: Prey protein in a cell lysate, detected by Western blot
T2 sequence (Q13586 23-685 limits assumed): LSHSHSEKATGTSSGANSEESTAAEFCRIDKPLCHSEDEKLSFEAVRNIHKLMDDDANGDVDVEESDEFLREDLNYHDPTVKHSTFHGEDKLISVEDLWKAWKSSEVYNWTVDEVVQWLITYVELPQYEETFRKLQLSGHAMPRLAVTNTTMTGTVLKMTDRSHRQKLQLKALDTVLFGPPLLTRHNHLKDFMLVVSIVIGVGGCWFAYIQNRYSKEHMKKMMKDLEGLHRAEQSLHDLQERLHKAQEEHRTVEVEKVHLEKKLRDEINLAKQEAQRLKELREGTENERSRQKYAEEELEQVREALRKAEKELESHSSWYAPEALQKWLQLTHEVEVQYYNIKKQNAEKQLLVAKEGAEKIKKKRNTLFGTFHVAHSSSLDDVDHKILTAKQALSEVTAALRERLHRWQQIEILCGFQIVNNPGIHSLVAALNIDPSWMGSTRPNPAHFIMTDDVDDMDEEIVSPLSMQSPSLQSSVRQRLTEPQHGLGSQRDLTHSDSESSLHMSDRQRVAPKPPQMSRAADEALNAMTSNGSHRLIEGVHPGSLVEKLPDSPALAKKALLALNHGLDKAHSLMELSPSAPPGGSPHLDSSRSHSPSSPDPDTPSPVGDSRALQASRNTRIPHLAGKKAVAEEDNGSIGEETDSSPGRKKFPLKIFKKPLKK
Procedure: as §1, §2

T1 sequence (Q13586 23-685): as the sequence (Q13586 23-685 limits assumed) above
Endogenous mouse STIM1 (mouse), sequence (P70302 23-685 limits assumed): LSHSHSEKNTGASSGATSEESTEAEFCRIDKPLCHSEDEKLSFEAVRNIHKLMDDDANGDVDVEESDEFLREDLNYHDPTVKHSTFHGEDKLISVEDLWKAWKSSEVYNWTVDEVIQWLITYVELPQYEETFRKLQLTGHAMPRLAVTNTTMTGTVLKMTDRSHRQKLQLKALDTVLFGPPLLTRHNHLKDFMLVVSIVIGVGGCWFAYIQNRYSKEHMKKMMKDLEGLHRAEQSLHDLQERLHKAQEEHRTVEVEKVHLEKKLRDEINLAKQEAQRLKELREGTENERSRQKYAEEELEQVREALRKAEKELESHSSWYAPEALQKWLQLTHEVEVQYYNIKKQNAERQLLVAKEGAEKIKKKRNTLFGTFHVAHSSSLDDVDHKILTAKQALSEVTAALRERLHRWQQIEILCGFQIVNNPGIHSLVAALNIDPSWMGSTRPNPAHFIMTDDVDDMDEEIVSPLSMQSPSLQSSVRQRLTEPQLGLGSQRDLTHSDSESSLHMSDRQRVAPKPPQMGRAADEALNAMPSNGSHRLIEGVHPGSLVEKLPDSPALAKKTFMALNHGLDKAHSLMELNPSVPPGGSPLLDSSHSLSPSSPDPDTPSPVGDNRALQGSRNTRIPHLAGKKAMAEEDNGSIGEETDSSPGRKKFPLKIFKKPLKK

peak of Ca^2+ release caused by ionomycin in MEFs from KO^Ex2 mice compared to WT [1] [%] | binding result [2] | binding result [3] | Molecule
60 |  |  | N-terminally truncated endogenous mouse PLA2g6(L) of KO^Ex2 mice (from UniProt P97819 179-807) (enzyme)
 | no binding | no binding | C-terminally SNAP-tagged N-terminally truncated human PLA2g6(L)^179-806 (enzyme, covalently immobilized on SNAP Capture Resin through the SNAP tag ; Covalently immobilised on SNAP Capture Resin through the C-terminal SNAP tag, which is not in the letters, Mimics the N-terminally truncated protein expected in KO^Ex2 mice; not shown: C-terminal SNAP tag and the vector linker of pSNAP-tag(m) (New England Biolabs)) MDVTDYKGETVFHYAVQGDNSQVLQLLGRNAVAGLNQVNNQGLTPLHLACQLGKQEMVRVLLLCNARCNIMGPNGYPIHSAMKFSQKGCAEMIISMDSSQIHSKDPRYGASPLHWAKNAEMARMLLKRGCNVNSTSSAGNTALHVAVMRNRFDCAIVLLTHGANADARGEHGNTPLHLAMSKDNVEMIKALIVFGAEVDTPNDFGETPTFLASKIGRLVTRKAILTLLRTVGAEYCFPPIHGVPAEQGSAAPHHPFSLERAQPPPISLNNLELQDLMHISRARKPAFILGSMRDEKRTHDHLLCLDGGGVKGLIIIQLLIAIEKASGVATKDLFDWVAGTSTGGILALAILHSKSMAYMRGMYFRMKDEVFRGSRPYESGPLEEFLKREFGEHTKMTDVRKPKVMLTGTLSDRQPAELHLFRNYDAPETVREPRFNQNVNLRPPAQPSDQLVWRAARSSGAAPTYFRPNGRFLDGGLLANNPTLDAMTEIHEYNQDLIRKGQANKVKKLSIVVSLGTGRSPQVPVTCVDVFRPSNPWELAKTVFGAKELGKMVVDCCTDPDGRAVDRARAWCEMVGIQYFRLNPQLGTDIMLDEVSDTVLVNALWETEVYIYEHREEFQKLIQLLLSP
